Tested on: MS2 coat protein
Assay: apparent KD of MS2 coat protein; designed switch direction (-1 OFF switch, 1 ON switch): -1; higher = weaker reporter binding
Summary of the method: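 Transcription of designed RNA switches on Illumina chips was done by stalled E. coli RNA polymerase. SNAP-549-labelled MS2 coat protein was then titrated in doubling steps from 0.7 or 1.5 nM to 3 µM, with steps of 0.8–1.5 h at the lowest and 10–20 min at the highest concentration. The per-design median over clusters of curve-fitted normalised fluorescence is reported as apparent KD.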

[1] = input ligand: microRNA oligo, concentration not stated
[2] = Eterna round: R95, input ligand: microRNA oligo, concentration not stated
[3] = Eterna round: R95, input ligand: FMN 200 uM
[4] = Eterna round: R95, input ligand: none

Sequence | apparent KD of MS2 coat protein [1] | apparent KD of MS2 coat protein [2] | apparent KD of MS2 coat protein [3] | apparent KD of MS2 coat protein [4] | apparent KD of MS2 coat protein (input ligand: FMN 200 uM) | apparent KD of MS2 coat protein (input ligand: none)
UAUAUAUAGUAAGGAUAUGUAUAUAUUAUAUAAACAGAAGGUACUGACAUGAGGAUCACCCAUGUUUUAGUGUGGGCAUGUAGA [JMF's solution 60] (Eterna round: R96, puzzle: Exclusion NG 1) | 53.3 nM |  |  |  |  | 
UUGUUGUGUGUAGGAUAUGCAUAUUAUUAUUAUGCAGAAGGACAUGAGGAUCACCCAUGUGUAUUAUUAUUAUAUAUUAUAUAU [Title] (Eterna round: R96, puzzle: Exclusion NG 1) | 18.3 nM |  |  |  |  | 
UUUAUGUCAGGAUAUGAUUAGAUCUACUUUUGUAGAUCUAAUCAGAAGGGACAUGAGGAUCACCCAUGUUUUUU [Ex4 - 3 - 15] (puzzle: Exclusion 4) |  | 41.2 nM |  |  |  | 
AUCUUGUAAGGAUAUCUGACAAGUGACGAAAGUCACAGUUCAGAGAAGGUACAUGAGGAUCACCCAUGUAGAAC [Ex4-3: 41] (puzzle: Exclusion 4) |  | 15.9 nM |  |  |  | 
AAUUUAACAUAGGAUAUCGAAUUUAUCAUUUAACGAGAAGGAUGAACAUGAGGAUCACCCAUGUGGUAUCAUGG [Mat - Exclusion 6 - JL Mod - D2] (puzzle: Exclusion 6) |  | 373 nM | 155 nM | 180 nM |  | 
UGAGCUUCAGGAUAUAUGUGGCGACCGUGAGGUCGAAGGUUACAUGAGGAUCACCCAUGUAGAAGGGAAGUUCU [Mat - Exclusion 2 - JL Mod - D19] (Eterna round: R97, puzzle: Exclusion 2) |  |  |  |  | 181 nM | 62.2 nM
CCUCUACAUGAGGAUCACCCAUGUUAGGAUAUGCCGGCCGACCUCGGGUGUGUAAUACGCAGAAGGAACGUUAC [Eternabot (Original) Solution 49] (Eterna round: R97, puzzle: Exclusion 1) |  |  |  |  | 835 nM | 2390 nM
GGAUCACGAGGAUAUCGAUUUUAGUACAUGAGGAUCACCCAUGUUGUCCAGGUCUCGAUUCGAGAAGGCGUGAUUC [LRO-Ex5-05] (puzzle: Exclusion 5) |  | 34.5 nM |  |  |  | 
AAAUUGCUAGAGGAUAUCGGAUAGAAUUUAUUACGAGAAGGUUAGACAUGAGGAUCACCCAUGUUCUGUUGGGA [EX6 #23] (Eterna round: R97, puzzle: Exclusion 6) |  |  |  |  | 70.1 nM | 29.1 nM
AAUCGAUCGCCGUACGCACACAUGAGGAUCACCCAUGUAGCUGAGGAUAUCCACCCAUAACGGUCGGAGAAGGCGGGACUGGGA [Eraananbi] (Eterna round: R96, puzzle: Exclusion NG 3) | 11.3 nM |  |  |  | 30.8 nM | 19.1 nM
GUGAUCUAUCAUGGAAUAAACAUGAGGAUCACCCAUGUAGACAAGUUUUUUGCUCGUCUUAUAAUAAGAUAGAUCAC [Antenna 14 - Jieux - Sensor, turn-off variant 1] (Eterna round: R97, puzzle: Sensor, turn-off variant 1) |  |  |  |  | 15.5 nM | 14.2 nM
UCAUGUUUAGAGGAUAUGAUUACUCUAGAGUGAUCAGAAGGCUAGACAUGAGGAUCACCCAUGUCAUAACAUGA [Exclusion 6 - B - 16:a] (puzzle: Exclusion 6) |  | 85.7 nM | 56.3 nM | 127 nM |  | 
AGUAGUUGUUUCCGUUCUUACAUGAGGAUCACCCAUGUUUCUUGACGUGCACGCGAUGCUCGUCAGACUACCAGAUG [salish99_TOv1_r3_057] (Eterna round: R96, puzzle: Sensor v3, turn-off variant 1) | 37.4 nM |  |  |  | 60.5 nM | 57 nM
AGUACUCACACGAAAGUGUUAGUACAAUAAGCUUGUGAAACAUGAGGAUCACCCAUGUCCUCAUAAGCUCGUCUUAU [salish99_TOv2_r3_018] (Eterna round: R96, puzzle: Sensor v3, turn-off variant 2) | 430 nM |  |  |  | 16.2 nM | 18.1 nM
UCAUGUCCGGAGGAUAUGGCGCCCGUAAGGGCGCCAGAAGGCCGGACAUGAGGAUCACCCAUGUCGGCCUUCCC (Eterna round: R97, puzzle: Exclusion 6) |  |  |  |  | 22.1 nM | 28.4 nM
AAUUAGCAAGCGAGAUCCCACAUGAGGAUCACCCAUGUGCUCGUCUUAUAAGGUACUGUGACGAUAGUCACGGUACC [Mat - Sensor, turn-off var - Eli Mod - D20] (Eterna round: R97, puzzle: Sensor, turn-off variant 1) |  |  |  |  | 15.6 nM | 13.5 nM

Sequence | apparent KD of MS2 coat protein [1] | apparent KD of MS2 coat protein [2] | apparent KD of MS2 coat protein [3] | apparent KD of MS2 coat protein [4] | apparent KD of MS2 coat protein (input ligand: FMN 200 uM) | apparent KD of MS2 coat protein (input ligand: none)
AAGAAACAUGAGGAUCACCCAUGUGAGGAUAUGAACAAGAAAAGAAAAGAAAGAAGAAUCAGAAGGCACAAAGG [salish99-ex1_r3_047] (puzzle: Exclusion 1) |  | 49.2 nM | 102 nM | 84.7 nM |  | 
GGUACUCAAAGAGUACCAAUACGAACAUGAGGAUCACCCAUGUAGGAUAUGCUACUCAAAGAGUAGCAGAAGGAUAUGAUCCAU [Far Half Aptamer v13] (Eterna round: R96, puzzle: Exclusion NG 3) | 60.5 nM |  |  |  |  | 
CGGUGCUGAGGAUAUACAUGAGGAUCACCCAUGUGUUCCAGCUAGCGUACUGGCAGAUGUAGAAGGCGGUACUG [JL-ex3-3.42 Brourd mod] (puzzle: Exclusion 3) |  | 19.9 nM | 78.9 nM | 19 nM |  | 
UAACAAGCUUAAAGAUCCCACAUGAGGAUCACCCAUGUGCUCGUCUUAUAACGUACUGUGACGAAAGUCACGGUACG [JL TOV1 3.13] (Eterna round: R97, puzzle: Sensor, turn-off variant 1) |  |  |  |  | 29.2 nM | 26.3 nM
GGAUAAAAGUGAGGAUAUGAGGAGAGAGAGAGAUCAGAAGGCACACAUGAGGAUCACCCAUGUGAGUUCUCGAUAAGAAACACG [Prohibition 55 - Jieux - Exclusion NG 1] (Eterna round: R96, puzzle: Exclusion NG 1) | 13.2 nM |  |  |  | 14.3 nM | 15.9 nM
CUGCUGGAGCUUUGCUUUGGUCGUACAUGAGGAUCACCCAUGUAGGAUAUGGUAGGCUUUGCUUACUAGAAGGAUAGAGUGGUC [salish99_ExNG3_r04_608] (Eterna round: R96, puzzle: Exclusion NG 3) | 76.4 nM |  |  |  | 160 nM | 86.4 nM
GCAAGCUUUAUCAAUAAGAACAUGAGGAUCACCCAUGUAUAAGGUAUUACUUUUGGGCUCUUUAGUGCUCGUCUUAU [JR_STOV1_Sub034] (Eterna round: R97, puzzle: Sensor, turn-off variant 1) |  |  |  |  | 47.4 nM | 51.5 nM
GUCUACCAGCUAGGAUAUGCAGUACAGUAAAAUGUAGAAGGAGCACGAUCCAGACAUGAGGAUCACCCAUGUGGGCGGUAGGCA [Vebiena] (Eterna round: R96, puzzle: Exclusion NG 1) | 9.52 nM |  |  |  | 19.8 nM | 17.3 nM
AAUUUAACAUAGGAUAUCGAAUUUAUUAUUUAACGAGAAGGAUGAACAUGAGGAUCACCCAUGUGGUAUCAUGG [Mat - Exclusion 6 - JL Mod - D22] (puzzle: Exclusion 6) |  | 109 nM | 100 nM | 174 nM |  | 
GCGGAGUCGAUCGUGAGAUCGGAGACAUGAGGAUCACCCAUGUAGGAUAUCGAUUGCUUUGCAGUCGAGAAGGGCGUGCUCCGC [JL denovo 18] (Eterna round: R96, puzzle: Exclusion NG 3) | 18.6 nM |  |  |  | 19.9 nM | 22.9 nM
GAGUAGUGAGGAUAUGCAAUGAUCAUCGUACGAUGAGGCUGACAUGAGGAUCACCCAUGUAGAAGGCGCUGAUC [EX2 #18] (Eterna round: R97, puzzle: Exclusion 2) |  |  |  |  | 57.3 nM | 75.2 nM
CCUCGACAUGAGGAUCACCCAUGUCAGGAUAUUGUGUUUUGGGUUUUUUACCUUUUGGCAAGAAGGGAUGUGUG [LRO-Excl1-19] (puzzle: Exclusion 1) |  | 14.4 nM |  |  |  | 
GCGCCAUCGUGAGAUGGCGUAUAUACAUGAGGAUCACCCAUGUAGGAUAUCGAUUGCUUUGCAGUCGAGAAGGGCAUGUAAUUU [JL ENG3 3.93] (Eterna round: R96, puzzle: Exclusion NG 3) | 25.8 nM |  |  |  |  | 
GCCGCUCACGAGGAUAUGGUGGAAAAGCCUUUGCUAGAAGGCGUGACAUGAGGAUCACCCAUGUAGGCACAUGA [Eternabot (L1) Solution 85] (Eterna round: R97, puzzle: Exclusion 6) |  |  |  |  | 24.9 nM | 30.4 nM
AACCCUCGUCAAGGAUAUACAUAGAAAAGCUUGGUAGAAGGUGACAUGAGGAUCACCCAUGUAAAAGGCCUGUCCAUUCAGGCC [Isonce] (Eterna round: R96, puzzle: Exclusion NG 1) | 67.8 nM |  |  |  | 96.4 nM | 78.1 nM

Source: the supplement of paper PMC9170038
